Experimental data as given in article PMC6626044, “Molecular basis of egg coat cross-linking sheds light on ZP1-associated female infertility” (Nature Communications, 2019).

Key:
[1] = target: chicken ZP1 ZP-N1 domain, recombinant, wild type (chicken); test: non-reducing against reducing SDS-PAGE with immunoblot; conditioned medium of transfected HEK293 cells, anti-5His immunoblot; shows only covalent (disulphide-bonded) oligomers
[2] = target: chicken ZP1 ZP-N1 domain, recombinant, wild type (chicken); test: SEC; IMAC-purified protein, analytical SEC at 4 °C in 20 mM Na-HEPES pH 7.8, 150 mM NaCl (HiLoad 26/600 Superdex 75 pg or Superdex 75 Increase 10/300 GL), fractions on Coomassie-stained SDS-PAGE
[3] = target: ~21 kDa N-terminal fragment of native chicken ZP1 (chicken); test: non-reducing against reducing SDS-PAGE with immunoblot; SEC fractions (Sephacryl S-300 HR) of chicken egg coat solubilised by sperm protease, anti-cZP1 N-terminal fragment polyclonal; bands confirmed by MALDI-MS/MS
[4] = target: chicken ZP1, full length, 6His-tagged (chicken); test: non-reducing against reducing SDS-PAGE with immunoblot; conditioned medium of transfected HEK293 cells, anti-5His immunoblot; shows only covalent (disulphide-bonded) oligomers
[5] = target: chicken ZP4 ZP-N1 domain, 6His-tagged (chicken); test: SEC; IMAC-purified protein, analytical SEC at 4 °C in 20 mM Na-HEPES pH 7.8, 150 mM NaCl (HiLoad 26/600 Superdex 75 pg or Superdex 75 Increase 10/300 GL), fractions on Coomassie-stained SDS-PAGE
[6] = target: the molecule itself; test: non-reducing against reducing SDS-PAGE with immunoblot; conditioned medium of transfected HEK293 cells, anti-5His immunoblot; shows only covalent (disulphide-bonded) oligomers
[7] = target: the molecule itself; test: SEC; IMAC-purified protein, analytical SEC at 4 °C in 20 mM Na-HEPES pH 7.8, 150 mM NaCl (HiLoad 26/600 Superdex 75 pg or Superdex 75 Increase 10/300 GL), fractions on Coomassie-stained SDS-PAGE

Question: Which results are given for “chicken ZP1 ZP-N1 domain, recombinant, wild type (domain or fragment)”?
Answer: stoichiometry N [1]: 2; stoichiometry N [2]: 2

Question: With “~21 kDa N-terminal fragment of native chicken ZP1 (domain or fragment)” as the molecule, how does the stoichiometry N [3] read?
Answer: 2

Question: How did the stoichiometry N [4] turn out when “chicken ZP1, full length, 6His-tagged (natural protein)” was run?
Answer: 2

Question: Which stoichiometry N [5] does the source give for “chicken ZP4 ZP-N1 domain, 6His-tagged (from UniProt A0A8V0ZLW5 1-148) (domain or fragment)” here?
Answer: 2

B1: human ZP1 ZP-N1 domain, H102 mutant (domain or fragment)
chain: RWLQPDPGLPGLRHSYDCGIKGMQLLVFPRPGQTLRFKVVDEFGNRFDVNNCSICYHWVTSRPQEPAVFSADYRGCAVLEKDGRFHLRVFMEAVLPNGRVDVAQDATLICPKPDPSRTLDSQLA
Question: Which “stoichiometry N” value [6] does the source give for B1 here?
Answer: 2

B2: human ZP1 ZP-N1 domain, H82 mutant (domain or fragment)
chain: RWLQPDPGLPGLRHSYDCGIKGMQLLVFPRPGQTLRFKVVDEFGNRFDVNNCSICYAWVTSRPQEPAVFSADYRGCHVLEKDGRFHLRVFMEAVLPNGRVDVAQDATLICPKPDPSRTLDSQLA
Question: How did the “stoichiometry N” value [6] turn out when B2 was run?
Answer: 2

B3: human ZP1 ZP-N1 domain, His-tagged, wild type (domain or fragment, UniProt P60852 26-149, looked up)
chain: RWLQPDPGLPGLRHSYDCGIKGMQLLVFPRPGQTLRFKVVDEFGNRFDVNNCSICYHWVTSRPQEPAVFSADYRGCHVLEKDGRFHLRVFMEAVLPNGRVDVAQDATLICPKPDPSRTLDSQLA
notes: signal peptide in the construct; human ZP1 ZP-N1 domain, M1-A149; also called hZP1-N1; hZP1_(M1-A149); source: HEK293T, transiently transfected; conditioned medium, and purified (IMAC, SEC); not shown: His, C-terminal, kept
Question: B3 was tested. Which “stoichiometry N” value [6] did it give?
Answer: 2

B4: mouse ZP1 ZP-N1 domain, 6His-tagged, wild type (domain or fragment, UniProt Q62005 21-141, looked up)
chain: QRLHLEPGFEYSYDCGVRGMQLLVFPRPNQTVQFKVLDEFGNRFEVNNCSICYHWVTSEAQEHTVFSADYKGCHVLEKDGRFHLRVFIQAVLPNGRVDIAQDVTLICPKPDHTVTPDPYLA
notes: signal peptide in the construct; mouse ZP1 ZP-N1 domain, M1-A141, in pHLsec3; Heterogeneous glycosylation at N49 and N68 gives two bands on SDS-PAGE; also called mZP1-N1; mZP1-N1_(M1-A141); source: HEK293, transiently transfected; conditioned medium, and purified (IMAC, SEC); not shown: 6His, C-terminal, kept
Question: For B4, which “stoichiometry N” value [7] is on record?
Answer: 2

B5: human ZP1, wild type, 6His-tagged (natural protein, UniProt P60852 26-553, looked up)
chain: RWLQPDPGLPGLRHSYDCGIKGMQLLVFPRPGQTLRFKVVDEFGNRFDVNNCSICYHWVTSRPQEPAVFSADYRGCHVLEKDGRFHLRVFMEAVLPNGRVDVAQDATLICPKPDPSRTLDSQLAPPAMFSVSTPQTLSFLPTSGHTSQGSGHAFPSPLDPGHSSVHPTPALPSPGPGPTLATLAQPHWGTLEHWDVNKRDYIGTHLSQEQCQVASGHLPCIVRRTSKEACQQAGCCYDNTREVPCYYGNTATVQCFRDGYFVLVVSQEMALTHRITLANIHLAYAPTSCSPTQHTEAFVVFYFPLTHCGTTMQVAGDQLIYENWLVSGIHIQKGPQGSITRDSTFQLHVRCVFNASDFLPIQASIFPPPSPAPMTQPGPLRLELRIAKDETFSSYYGEDDYPIVRLLREPVHVEVRLLQRTDPNLVLLLHQCWGAPSANPFQQPQWPILSDGCPFKGDSYRTQMVALDGATPFQSHYQRFTVATFALLDSGSQRALRGLVYLFCSTSACHTSGLETCSTACSTGTTRQ
notes: human zona pellucida glycoprotein 1 (hZP1), wild type, synthetic cDNA in pHLsec3; the secreted form in the medium was analysed; also called hZP1; full-length hZP1; source: HEK293T, transiently transfected, secreted into the conditioned medium
Question: For B5, which “stoichiometry N” value [6] is on record?
Answer: 2
